Test [1] deals with T1, full length human EpCAM on cells (human, UniProt P16422 24-314).
T1 construct: the cell line is named under assay; also called EpCAM on DiFi, HPAF-II and A549 tumor cells; CHO-S cells transfected with full length human EpCAM
T1 sequence: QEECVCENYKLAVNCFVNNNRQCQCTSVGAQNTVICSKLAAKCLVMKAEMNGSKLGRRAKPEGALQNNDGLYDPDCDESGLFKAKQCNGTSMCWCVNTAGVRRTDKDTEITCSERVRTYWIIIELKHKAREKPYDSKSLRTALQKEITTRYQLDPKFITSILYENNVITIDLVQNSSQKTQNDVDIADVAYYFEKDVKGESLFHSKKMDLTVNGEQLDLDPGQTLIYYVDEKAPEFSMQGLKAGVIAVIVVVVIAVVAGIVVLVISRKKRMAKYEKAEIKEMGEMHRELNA
The test can be described thus: flow cytometry on DiFi, HPAF-II and A549 tumor cells. (In flow cytometry, cells or beads pass a laser one at a time.)

Test [2] has as its target T2, recombinant human EpCAM (R&D systems, cat no 9277-EP) (human, UniProt P16422 24-265).
T2 construct: also called human EpCAM extracellular domain
T2 sequence: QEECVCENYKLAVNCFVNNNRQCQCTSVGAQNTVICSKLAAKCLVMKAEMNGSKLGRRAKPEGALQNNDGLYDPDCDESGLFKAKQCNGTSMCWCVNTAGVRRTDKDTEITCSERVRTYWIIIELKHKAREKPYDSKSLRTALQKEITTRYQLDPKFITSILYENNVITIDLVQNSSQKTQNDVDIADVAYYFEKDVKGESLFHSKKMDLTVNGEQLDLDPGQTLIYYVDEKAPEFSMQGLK
The test can be described thus: BLI (Octet HTX); His-tagged human EpCAM on anti-Penta-HIS sensors, antibody 1.56-100 nM as analyte. In general terms: In BLI a coated tip is dipped into the sample, and binding shifts an interference pattern.

In test [3] the target is T2, recombinant human EpCAM (R&D systems, …). The test can be described thus: BLI (Octet HTX); His-tagged human EpCAM on anti-Penta-HIS sensors, antibody as analyte; 1:1 global full fit.
Test [4] deals with T1, full length human EpCAM on cells. The test can be described thus: flow cytometry on CHO-S cells transfected with human EpCAM.
For test [5], the target named is T3, full length mouse EpCAM on CHO-S cells (mouse, UniProt Q99JW5 24-315).
T3 sequence: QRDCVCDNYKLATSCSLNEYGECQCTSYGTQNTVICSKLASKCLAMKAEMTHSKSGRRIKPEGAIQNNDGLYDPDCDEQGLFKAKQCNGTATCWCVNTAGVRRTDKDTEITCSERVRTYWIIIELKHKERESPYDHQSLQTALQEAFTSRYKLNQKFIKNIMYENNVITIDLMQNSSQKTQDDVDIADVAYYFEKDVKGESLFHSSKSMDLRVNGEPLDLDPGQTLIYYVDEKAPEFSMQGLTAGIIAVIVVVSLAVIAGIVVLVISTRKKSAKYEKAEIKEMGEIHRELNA
The test can be described thus: flow cytometry on CHO-S cells transfected with mouse EpCAM.

Test [6] deals with T4, full length cynomolgus monkey EpCAM on CHO-S cells (cynomolgus monkey, UniProt Q1WER1 24-314 (rhesus entry)).
T4 sequence: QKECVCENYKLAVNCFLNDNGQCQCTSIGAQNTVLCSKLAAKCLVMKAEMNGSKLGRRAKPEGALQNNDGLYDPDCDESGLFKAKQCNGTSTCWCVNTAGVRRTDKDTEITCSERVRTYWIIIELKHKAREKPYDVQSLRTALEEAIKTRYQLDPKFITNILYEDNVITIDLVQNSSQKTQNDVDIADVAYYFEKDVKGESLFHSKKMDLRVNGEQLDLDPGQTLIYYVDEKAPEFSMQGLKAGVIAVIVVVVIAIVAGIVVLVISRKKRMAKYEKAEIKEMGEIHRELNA
The test can be described thus: flow cytometry on CHO-S cells transfected with cynomolgus monkey EpCAM.

B1: IgG1-b12-FEAL (antibody, V domains shown)
VH: QVQLVQSGAEVKKPGASVKVSCQASGYRFSNFVIHWVRQAPGQRFEWMGWINPYNGNKEFSAKFQDRVTFTADTSANTAYMELRSLRSADTAVYYCARVGPYSWDDSPQDNYYMDVWGKGTTVIVSS
VL: EIVLTQSPGTLSLSPGERATFSCRSSHSIRSRRVAWYQHKPGQAPRLVIHGVSNRASGISDRFSGSGSGTDFTLTITRVEPEDFALYYCQVYGASSYTFGQGTKLERKR
notes: also called negative control antibody
On to B1, for which the binding result in test [1] is “no binding (tested: up to 50 µg/mL)”.

B2: BisG2amm-EpCAM-323-A3-AALT/m4-1BB-3H3-AAKR (bispecific antibody, mouse IgG2a, kappa)
heavy 1: QIQLVQSGPELKKPGETVKISCKASGYTFTNYGMNWVRQASGEGLKWMGWINTYTGEPTYGEDFKGRFAFSLETSASTAYLQINNLKNEDTATYFCARFGNYVDYWGQGTTLTVSSAKTTAPSVYPLAPVCGDTTGSSVTLGCLVKGYFPEPVTLTWNSGSLSSGVHTFPAVLQSDLYTLSSSVTVTSSTWPSQSITCNVAHPASSTKVDKKIEPRGPTIKPCPPCKCPAPNAAGGPSVFIFPPKIKDVLMISLSPMVTCVVVDVSEDDPDVQISWFVNNVEVLTAQTQTHREDYNSTLRVVSALPIQHQDWMSGKEFKCKVNNKALPAPIERTISKPKGSVRAPQVYVLPPPEEEMTKKQVTLTCMVTDFMPEDIYVEWTNNGKTELNYKNTEPVLDSDGSYLMYSKLTVEKKNWVERNSYSCSVVHEGLHNHHTTKSFSRTPG
light 1: DIVMTQAAFSNPVTLGTSASISCRSSKNLLHSNGITYLYWYLQKPGQSPHLLIYQMSNLASGVPDRFSSSGSGTDFTLRISRVEAEDVGVYYCAQNLEIPRTFGGGTKLEIKRADAAPTVSIFPPSSEQLTSGGASVVCFLNNFYPKDINVKWKIDGSERQNGVLNSWTDQDSKDSTYSMSSTLTLTKDEYERHNSYTCEATHKTSTSPIVKSFNRNEC
heavy 2: EMQLVESGGGLVQPGRSMKLSCAGSGFTLSDYGVAWVRQAPKKGLEWVAYISYAGGTTYYRESVKGRFTISRDNAKSTLYLQMDSLRSEDTATYYCTIDGYGGYSGSHWYFDFWGPGTMVTVSSAKTTAPSVYPLAPVCGDTTGSSVTLGCLVKGYFPEPVTLTWNSGSLSSGVHTFPAVLQSDLYTLSSSVTVTSSTWPSQSITCNVAHPASSTKVDKKIEPRGPTIKPCPPCKCPAPNAAGGPSVFIFPPKIKDVLMISLSPMVTCVVVDVSEDDPDVQISWFVNNVEVLTAQTQTHREDYNSTLRVVSALPIQHQDWMSGKEFKCKVNNKALPAPIERTISKPKGSVRAPQVYVLPPPEEEMTKKQVTLTCMVKDFMPEDIYVEWTNNGKTELNYKNTEPVLDSDGSYFMYSRLRVEKKNWVERNSYSCSVVHEGLHNHHTTKSFSRTPG
light 2: DIQMTQSPSLLSASVGDRVTLNCRTSQNVYKNLAWYQQKLGEAPKLLIYNANSLQAGIPSRFSGSGSGTDFTLTISSLQPEDVATYFCQQYYSGNTFGAGTNLELKRADAAPTVSIFPPSSEQLTSGGASVVCFLNNFYPKDINVKWKIDGSERQNGVLNSWTDQDSKDSTYSMSSTLTLTKDEYERHNSYTCEATHKTSTSPIVKSFNRNEC
notes: Mouse IgG2a bispecific made by controlled Fab-arm exchange; one EpCAM arm, so monovalent for EpCAM; also called BsIgG2amm-EpCAM-323-A3-AALT/m4-1BB-3H3-AAKR; BisIgG2amm-EpCAM-323-A3-AALT/m4-1BB-3H3-AAKR
As for B2, in test [2], the Response stood at 1.21 nm. Besides, in test [3], the Kd (as a rule, the equilibrium constant for the complex coming apart) worked out at 3.2 nM; the koff – broadly, the first-order rate constant of dissociation – turned out to be 0.0011 s⁻¹; the kon (usually the rate constant with which the complex forms) came to 340000 M⁻¹ s⁻¹.

B3: bsIgG1-b12-FEAL/EpCAM-323-A3-FEAR (bispecific antibody)
heavy 1: QVQLVQSGAEVKKPGASVKVSCQASGYRFSNFVIHWVRQAPGQRFEWMGWINPYNGNKEFSAKFQDRVTFTADTSANTAYMELRSLRSADTAVYYCARVGPYSWDDSPQDNYYMDVWGKGTTVIVSSASTKGPSVFPLAPSSKSTSGGTAALGCLVKDYFPEPVTVSWNSGALTSGVHTFPAVLQSSGLYSLSSVVTVPSSSLGTQTYICNVNHKPSNTKVDKRVEPKSCDKTHTCPPCPAPEFEGGPSVFLFPPKPKDTLMISRTPEVTCVVVAVSHEDPEVKFNWYVDGVEVHNAKTKPREEQYNSTYRVVSVLTVLHQDWLNGKEYKCKVSNKALPAPIEKTISKAKGQPREPQVYTLPPSREEMTKNQVSLTCLVKGFYPSDIAVEWESNGQPENNYKTTPPVLDSDGSFLLYSKLTVDKSRWQQGNVFSCSVMHEALHNHYTQKSLSLSPG
light 1: EIVLTQSPGTLSLSPGERATFSCRSSHSIRSRRVAWYQHKPGQAPRLVIHGVSNRASGISDRFSGSGSGTDFTLTITRVEPEDFALYYCQVYGASSYTFGQGTKLERKRTVAAPSVFIFPPSDEQLKSGTASVVCLLNNFYPREAKVQWKVDNALQSGNSQESVTEQDSKDSTYSLSSTLTLSKADYEKHKVYACEVTHQGLSSPVTKSFNRGEC
heavy 2: QIQLVQSGPELKKPGETVKISCKASGYTFTNYGMNWVRQASGEGLKWMGWINTYTGEPTYGEDFKGRFAFSLETSASTAYLQINNLKNEDTATYFCARFGNYVDYWGQGTTLTVSSASTKGPSVFPLAPSSKSTSGGTAALGCLVKDYFPEPVTVSWNSGALTSGVHTFPAVLQSSGLYSLSSVVTVPSSSLGTQTYICNVNHKPSNTKVDKRVEPKSCDKTHTCPPCPAPEFEGGPSVFLFPPKPKDTLMISRTPEVTCVVVAVSHEDPEVKFNWYVDGVEVHNAKTKPREEQYNSTYRVVSVLTVLHQDWLNGKEYKCKVSNKALPAPIEKTISKAKGQPREPQVYTLPPSREEMTKNQVSLTCLVKGFYPSDIAVEWESNGQPENNYKTTPPVLDSDGSFFLYSRLTVDKSRWQQGNVFSCSVMHEALHNHYTQKSLSLSPG
light 2: DIVMTQAAFSNPVTLGTSASISCRSSKNLLHSNGITYLYWYLQKPGQSPHLLIYQMSNLASGVPDRFSSSGSGTDFTLRISRVEAEDVGVYYCAQNLEIPRTFGGGTKLEIKRTVAAPSVFIFPPSDEQLKSGTASVVCLLNNFYPREAKVQWKVDNALQSGNSQESVTEQDSKDSTYSLSSTLTLSKADYEKHKVYACEVTHQGLSSPVTKSFNRGEC
Consider B3, for which the binding result in test [4], in test [5] and in test [6] was “binds” throughout.

(Values after patent US20230295335A1 (published 2023).)
